Test system: Escherichia coli TOP10
Experiment: shrunken log2 fold change of peptide-encoding DNA abundance (4.5 h post-induction vs induction); higher = less antimicrobial activity (less host growth inhibition)
Conditions: time post-induction: 4.5 h; library: site-saturation at positions 5, 18, 19, 20
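Further: peptides expressed intracellularly from a pBAD plasmid library in pooled LB shake-flask culture, induced with 0.3% L-arabinose, DNA abundance read by NGS, three biological replicates, DESeq2 with apeglm shrinkage.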

Sequence	shrunken log2 fold change
RRIRKRPPRLPRPRPRPPIWPRP	0.106
RRIRFRPPRLPRPRPRPCAAPRP	0.35
RRIRCRPPRLPRPRPRPKMEPRP	-0.204
RRIRLRPPRLPRPRPRPAIHPRP	-0.192
RRIRLRPPRLPRPRPRPDASPRP	0.101
RRIRDRPPRLPRPRPRPWVLPRP	-0.00957
RRIRWRPPRLPRPRPRPYCNPRP	-0.455
RRIRWRPPRLPRPRPRPSEMPRP	-0.148
RRIRYRPPRLPRPRPRPPWEPRP	-0.381
RRIRARPPRLPRPRPRPYRNPRP	-0.222
RRIRQRPPRLPRPRPRPAVSPRP	-0.0348
RRIRHRPPRLPRPRPRPVCKPRP	-0.14
RRIRRRPPRLPRPRPRPRFIPRP	0.00289
RRIRCRPPRLPRPRPRPDYEPRP	-0.373
RRIRCRPPRLPRPRPRPKVGPRP	-0.0582
RRIRQRPPRLPRPRPRPVELPRP	4.07e-05
RRIRCRPPRLPRPRPRPWLSPRP	-0.215
RRIRTRPPRLPRPRPRPMFVPRP	-0.215
RRIRLRPPRLPRPRPRPMKHPRP	-0.409
RRIRGRPPRLPRPRPRPATEPRP	0.976
RRIRQRPPRLPRPRPRPCHFPRP	0.173
RRIRNRPPRLPRPRPRPVIQPRP	0.0549
RRIRRRPPRLPRPRPRPCPGPRP	-0.196
RRIRFRPPRLPRPRPRPYTKPRP	-0.573
RRIRVRPPRLPRPRPRPYSCPRP	-0.00112

Sequence	shrunken log2 fold change
RRIRKRPPRLPRPRPRPNTHPRP	-0.125
RRIRIRPPRLPRPRPRPRVVPRP	0.00259
RRIRGRPPRLPRPRPRPDISPRP	-0.0115
RRIRFRPPRLPRPRPRPGWEPRP	0.0875
RRIRMRPPRLPRPRPRPSLLPRP	0.0721
RRIRPRPPRLPRPRPRPLWMPRP	0.0937
RRIRYRPPRLPRPRPRPCGDPRP	-0.0424
RRIRERPPRLPRPRPRPENAPRP	-0.00683
RRIRVRPPRLPRPRPRPGQLPRP	0.208
RRIRCRPPRLPRPRPRPYPHPRP	-0.438
RRIRQRPPRLPRPRPRPCIWPRP	-0.018
RRIRCRPPRLPRPRPRPVWFPRP	0.029
RRIRIRPPRLPRPRPRPLWFPRP	-0.257
RRIRYRPPRLPRPRPRPCLPPRP	-0.409
RRIRTRPPRLPRPRPRPNDIPRP	-0.873
RRIRCRPPRLPRPRPRPPFHPRP	-0.224
RRIRGRPPRLPRPRPRPEWLPRP	1.5
RRIRDRPPRLPRPRPRPKKVPRP	0.241
RRIRIRPPRLPRPRPRPASIPRP	-0.361
RRIRRRPPRLPRPRPRPQCGPRP	0.317
RRIRMRPPRLPRPRPRPSPKPRP	0.593
RRIRQRPPRLPRPRPRPSPDPRP	0.262
RRIRMRPPRLPRPRPRPREQPRP	0.0355
RRIRGRPPRLPRPRPRPYTQPRP	-0.0862
RRIRWRPPRLPRPRPRPRQHPRP	0.251

Sequence	shrunken log2 fold change
RRIRERPPRLPRPRPRPRHVPRP	0.0784
RRIRDRPPRLPRPRPRPLFLPRP	-0.13
RRIRRRPPRLPRPRPRPVPQPRP	0.28
RRIRLRPPRLPRPRPRPERWPRP	0.637
RRIRARPPRLPRPRPRPEEVPRP	0.0554
RRIRNRPPRLPRPRPRPCEIPRP	0.0361
RRIRDRPPRLPRPRPRPCRHPRP	0.344
RRIRPRPPRLPRPRPRPCCYPRP	-0.47
RRIRERPPRLPRPRPRPWSYPRP	0.0168
RRIRHRPPRLPRPRPRPSMPPRP	-0.0929
RRIRARPPRLPRPRPRPTKYPRP	-0.114
RRIRCRPPRLPRPRPRPRQYPRP	-0.15
RRIRGRPPRLPRPRPRPLTCPRP	0.416
RRIRNRPPRLPRPRPRPNGSPRP	-0.0999
RRIRIRPPRLPRPRPRPVAHPRP	0.0168
RRIRERPPRLPRPRPRPIQKPRP	-0.184
RRIRERPPRLPRPRPRPDRCPRP	0.0731
RRIRWRPPRLPRPRPRPIDCPRP	0.0353
RRIRYRPPRLPRPRPRPIDKPRP	-0.00865
RRIRDRPPRLPRPRPRPMNTPRP	-0.125
RRIRKRPPRLPRPRPRPFASPRP	0.193
RRIRNRPPRLPRPRPRPVCQPRP	-0.0808
RRIRNRPPRLPRPRPRPITLPRP	-0.229
RRIRSRPPRLPRPRPRPNCGPRP	-0.146
RRIRGRPPRLPRPRPRPTIQPRP	0.54

Sequence	shrunken log2 fold change
RRIRDRPPRLPRPRPRPHLDPRP	-0.131
RRIRTRPPRLPRPRPRPYPMPRP	-1.43
RRIRDRPPRLPRPRPRPATKPRP	0.318
RRIRARPPRLPRPRPRPRIHPRP	-0.145
RRIRIRPPRLPRPRPRPDKPPRP	-0.0335
RRIRRRPPRLPRPRPRPHWTPRP	-0.12
RRIRLRPPRLPRPRPRPMPVPRP	0.132
RRIRGRPPRLPRPRPRPGGEPRP	1.24
RRIRRRPPRLPRPRPRPILWPRP	0.0428
RRIRLRPPRLPRPRPRPQWAPRP	0.123
RRIRIRPPRLPRPRPRPSHCPRP	-0.505
RRIRERPPRLPRPRPRPTITPRP	-0.598
RRIRLRPPRLPRPRPRPFAMPRP	-0.407
RRIRLRPPRLPRPRPRPYEMPRP	-0.468
RRIRTRPPRLPRPRPRPNMLPRP	-0.45
RRIRARPPRLPRPRPRPLSKPRP	-0.0286
RRIRARPPRLPRPRPRPACFPRP	0.736
RRIRIRPPRLPRPRPRPVMVPRP	-0.066
RRIRDRPPRLPRPRPRPQDNPRP	-0.0684
RRIRYRPPRLPRPRPRPPECPRP	0.0463
RRIRCRPPRLPRPRPRPCASPRP	0.0454
RRIRVRPPRLPRPRPRPKSNPRP	-0.206
RRIRWRPPRLPRPRPRPCSYPRP	-0.0533
RRIRVRPPRLPRPRPRPGSMPRP	-0.00131
RRIRDRPPRLPRPRPRPFQEPRP	-0.137

Sequence	shrunken log2 fold change
RRIRERPPRLPRPRPRPMKAPRP	-0.00245
RRIRHRPPRLPRPRPRPEMAPRP	0.253
RRIRIRPPRLPRPRPRPPNNPRP	-0.637
RRIRWRPPRLPRPRPRPNQIPRP	-0.189
RRIRWRPPRLPRPRPRPKEEPRP	1.07
RRIRKRPPRLPRPRPRPCWTPRP	-0.0905
RRIRGRPPRLPRPRPRPGEFPRP	0.329
RRIRWRPPRLPRPRPRPTVGPRP	0.468
RRIRKRPPRLPRPRPRPKNRPRP	0.226
RRIRFRPPRLPRPRPRPESGPRP	0.0504
RRIRIRPPRLPRPRPRPDQKPRP	-0.0112
RRIRYRPPRLPRPRPRPECRPRP	-0.142
RRIRPRPPRLPRPRPRPRSLPRP	0.14
RRIRIRPPRLPRPRPRPTHWPRP	0.133
RRIRNRPPRLPRPRPRPFKTPRP	-0.0614
RRIRMRPPRLPRPRPRPGQHPRP	0.406
RRIRNRPPRLPRPRPRPDVFPRP	-0.199
RRIRQRPPRLPRPRPRPFHMPRP	-0.0421
RRIRVRPPRLPRPRPRPPSVPRP	0.129
RRIRNRPPRLPRPRPRPIAPPRP	0.0153
RRIRDRPPRLPRPRPRPQLSPRP	0.103
RRIRVRPPRLPRPRPRPKFLPRP	-0.00678
RRIRKRPPRLPRPRPRPKMKPRP	0.444
RRIRWRPPRLPRPRPRPYSCPRP	-0.705
RRIRSRPPRLPRPRPRPIDMPRP	-0.00448

Sequence	shrunken log2 fold change
RRIRHRPPRLPRPRPRPFYAPRP	-0.724
RRIRIRPPRLPRPRPRPDPSPRP	-0.0293
RRIRFRPPRLPRPRPRPTIWPRP	-0.000248
RRIRFRPPRLPRPRPRPPLYPRP	-0.0579
RRIRKRPPRLPRPRPRPCFNPRP	-0.0824
RRIRFRPPRLPRPRPRPNRVPRP	-0.0261
RRIRTRPPRLPRPRPRPVQGPRP	0.165
RRIRRRPPRLPRPRPRPGQCPRP	0.22
RRIRRRPPRLPRPRPRPAIIPRP	-0.115
RRIRDRPPRLPRPRPRPQHAPRP	0.044
RRIRLRPPRLPRPRPRPLNFPRP	-0.268
RRIRIRPPRLPRPRPRPWYRPRP	-0.678
RRIRPRPPRLPRPRPRPIIQPRP	-0.402
RRIRVRPPRLPRPRPRPGQMPRP	-0.0386
RRIRKRPPRLPRPRPRPQNFPRP	-0.214
RRIRCRPPRLPRPRPRPPSFPRP	0.175
RRIRCRPPRLPRPRPRPAYRPRP	-0.194
RRIRKRPPRLPRPRPRPGFEPRP	0.32
RRIRSRPPRLPRPRPRPSFGPRP	0.176
RRIRARPPRLPRPRPRPSNHPRP	-0.089
RRIRDRPPRLPRPRPRPITMPRP	0.111
RRIRDRPPRLPRPRPRPSKEPRP	-0.031
RRIRNRPPRLPRPRPRPIRMPRP	-0.00776
RRIRGRPPRLPRPRPRPHWEPRP	0.324
RRIRPRPPRLPRPRPRPMHFPRP	0.015

Reference: the supplement of paper PMC9112550, “Optimization of the antimicrobial peptide Bac7 by deep mutational scanning” (BMC Biology, 2022)
